# According to patent US20240024851A1:
# B1: anti-AAV-VHH antibody VHH1 (VHH)
# VHH: QVQLVESGGGLVQAGGSLRLSCAASGRTFSSYAMGWFRQAPGKEREIVASISWNGGSTDYADSVKGRFTISRDNAKNTVYLQMNSLKPEDTAVYYCAADSTNWVFYDYWGQGTQVTVSS
# Experiments:
# [1] = target: adeno-associated virus type 2 (AAV2) particles (adeno-associated virus type 2) (UniProt P03135); test: affinity column (beads), AAV2 crude liquid, retention time 5 sec, qPCR
# [2] = target: adeno-associated virus type 2 (AAV2) particles (adeno-associated virus type 2) (UniProt P03135); test: affinity column (beads), AAV2 crude liquid, retention time 10 sec, qPCR
# [3] = target: adeno-associated virus type 2 (AAV2) particles (adeno-associated virus type 2) (UniProt P03135); test: affinity column (beads), AAV2 pre-treatment liquid, 0.2 mL/min, qPCR
# [4] = target: adeno-associated virus type 2 (AAV2) particles (adeno-associated virus type 2) (UniProt P03135); test: affinity column (beads), AAV2 crude liquid, 0.2 mL/min, qPCR
# [5] = target: adeno-associated virus type 1 (AAV1) particles (adeno-associated virus type 1); test: batch adsorption of AAV1 pre-treatment liquid to discs (ligand on nonwoven fabric 1), acid elution, qPCR
Molecule,leaked AAV to FT [1] [vg],ratio of leaked AAV to recovered AAV [1] [%],ratio of residual AAV to recovered AAV [1] [%],recovered AAV in elution step [1] [vg],residual AAV in washing step [1] [vg],leaked AAV to FT [2] [vg],ratio of leaked AAV to recovered AAV [2] [%],ratio of residual AAV to recovered AAV [2] [%],recovered AAV in elution step [2] [vg],residual AAV in washing step [2] [vg],ratio of residual AAV to recovered AAV [3] [%],recovered AAV in elution step [3] [vg],residual AAV in washing step [3] [vg],leaked AAV to FT [4] [vg],ratio of leaked AAV to recovered AAV [4] [%],ratio of residual AAV to recovered AAV [4] [%],recovered AAV in elution step [4] [vg],residual AAV in washing step [4] [vg],amount of the AAV1 adsorbed [5] [vg/mL-column]
"POROS CaptureSelect AAVX (ligand of the commercial affinity resin, Thermo Scientific) (VHH)",1.38e+11,19,22,7.42e+11,1.67e+11,4.19e+10,5,17,8.66e+11,1.47e+11,48.8,5.75e+11,2.8e+11,5.97e+09,1,17,8.77e+11,1.49e+11,
B1,,,,,,,,,,,,,,,,,,,1.1e+13
